For data set [1], the target named is T1, LARP6 NTD (Homo sapiens, UniProt Q9BRS8 2-300).
T1 sequence: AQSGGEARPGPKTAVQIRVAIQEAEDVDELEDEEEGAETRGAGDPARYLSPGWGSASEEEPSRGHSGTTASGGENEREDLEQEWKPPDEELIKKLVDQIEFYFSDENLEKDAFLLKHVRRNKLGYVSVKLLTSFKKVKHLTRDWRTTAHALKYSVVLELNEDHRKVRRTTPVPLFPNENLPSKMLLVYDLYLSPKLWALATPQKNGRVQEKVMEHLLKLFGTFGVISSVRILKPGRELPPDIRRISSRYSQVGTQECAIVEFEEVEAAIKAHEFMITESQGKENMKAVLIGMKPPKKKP
Description: BLI; Mg; 20 mM Tris-HCl pH 7.5, 100 mM KCl, 0.5 mM MgCl2, 1 mM TCEP, 0.05% Tween-20, 25 C; steady state, 1:1 fit. As to conditions: label: 5' biotin.

The target in data set [2] is T2, LARP6 La-module (Homo sapiens, UniProt Q9BRS8 70-300).
T2 sequence: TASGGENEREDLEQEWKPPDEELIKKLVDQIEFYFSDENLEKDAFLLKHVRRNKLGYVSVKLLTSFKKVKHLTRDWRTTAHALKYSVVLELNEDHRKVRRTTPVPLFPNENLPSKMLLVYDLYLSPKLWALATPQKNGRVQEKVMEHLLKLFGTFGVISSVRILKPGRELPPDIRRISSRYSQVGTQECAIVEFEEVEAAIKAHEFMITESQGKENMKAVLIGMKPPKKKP
The description is as above. Conditions: label: 5' biotin.

The target in data set [3] is T1, LARP6 NTD. Description: BLI; 0.5 mM Mg2+; BLI: 20 mM Tris-HCl pH 7.5, 100 mM KCl, 0.5 mM MgCl2, 1 mM TCEP, 0.05% Tween-20, 25 °C; MST, NMR and SAXS buffers not in the material. As to conditions: protein: recombinant; tags: 6xHis-SUMO-TEV tag, cleaved; label: 5' biotin; single strand. On the technique in general: BLI is a label-free optical method that tracks binding on a fibre tip over time.

For data set [4], the target named is T2, LARP6 La-module. The description is as above. As to conditions: protein: recombinant; tags: His tag cleaved by TEV; label: 5' biotin; single strand.
Data set [5] concerns the target T3, LARP6 NTR (Homo sapiens, UniProt Q9BRS8 2-83).
T3 sequence: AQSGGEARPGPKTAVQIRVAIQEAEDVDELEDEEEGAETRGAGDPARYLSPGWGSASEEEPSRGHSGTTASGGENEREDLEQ
Described as above. As to conditions: protein: recombinant; tags: 6xHis-SUMO-TEV tag, cleaved; label: 5' biotin; single strand.

The target in data set [6] is T1, LARP6 NTD. Briefly: MST; BLI: 20 mM Tris-HCl pH 7.5, 100 mM KCl, 0.5 mM MgCl2, 1 mM TCEP, 0.05% Tween-20, 25 °C; MST, NMR and SAXS buffers not in the material. As to conditions: protein: recombinant; tags: 6xHis-SUMO-TEV tag, cleaved; label: 5' 6-FAM; single strand.
Data set [7] has as its target T3, LARP6 NTR. Described as above. As to conditions: protein: recombinant; tags: 6xHis-SUMO-TEV tag, cleaved; label: 5' 6-FAM; single strand.
In data set [8] the target is T2, LARP6 La-module. The description is as above. Conditions: protein: recombinant; tags: His tag cleaved by TEV; label: 5' 6-FAM; single strand.

B1: CTNNA1 D2 (ssRNA)
RNA: GUUUAAGUUGAUUAAAAAUGCUUUU
Broadly, the Kd is the free concentration of one partner at which half of the binding sites on the other are occupied at equilibrium, for simple one-to-one binding. For the molecule B1, the values for the Kd with LARP6 NTD [1], in the data set with LARP6 La-module [2] and with LARP6 NTD [3] were 360 ± 57 nM, 6.9 ± 0.6 nM and 367 ± 57 nM, respectively.

B2: CTNNA1 P1 (ssRNA)
RNA: CUAAAUACAACACUGAUACUAGAUU
B2: the Kd with LARP6 NTD [1] was found to be 58 ± 5 nM; with LARP6 La-module [2] it was 1.3 ± 0.4 nM.

B3: CTNNA1 U1 (ssRNA)
RNA: ACUGUUCGUCACUCAAAUGAAUUUG
Regarding B3, the Kd in the data set with LARP6 La-module [2] amounted to 14 ± 0.8 nM; in the data set with LARP6 NTD [3], 587 ± 29 nM.

B4: CTNNA1 P2 (ssRNA)
RNA: GGAAAUGGGCAGACUGAACCAGUCC
Regarding B4, the Kd came out at 17 ± 1.2 nM with LARP6 NTD [1], 0.9 ± 0.05 nM with LARP6 La-module [2] and 0.91 ± 0.05 nM with LARP6 La-module [4].

B5: CTNNA1 P1 (5' biotin) (ssRNA)
RNA: CUAAAUACAACACUGAUACUAGAUU
For the molecule B5, the values for the Kd with LARP6 NTD [3], in the data set with LARP6 NTR [5] and with LARP6 La-module [4] were 61 ± 5 nM, 1200 ± 500 nM and 1.5 ± 0.4 nM, respectively.

B6: CTNNA1 P1 (5' 6-FAM) (ssRNA)
RNA: CUAAAUACAACACUGAUACUAGAUU
On to B6, for which the Kd with LARP6 NTD [6] turned out to be 99 nM; in the data set with LARP6 NTR [7], 8300 nM; in the data set with LARP6 La-module [8], 5.8 nM.

B7: CTNNA1 U2 (ssRNA)
RNA: CCCUCGGGGCUCCUGAAUAUCAGUC
B7: the equilibrium dissociation constant (Kd) with LARP6 NTD [1] came to 180 ± 5 nM; in the data set with LARP6 La-module [2], 4.3 ± 0.1 nM; with LARP6 NTD [3], 183 ± 5 nM; with LARP6 La-module [4], 4.4 ± 0.1 nM.

B8: CTNNA1 D1 (ssRNA)
RNA: AGGUGGUGAAUUUUCCAAGAACAUA
Take B8: the Kd with LARP6 NTD [1] is 87 ± 4 nM; with LARP6 La-module [2], 2 ± 0.1 nM; with LARP6 NTD [3] it was 85 ± 4 nM.

The values are drawn from publication PMC13031558, “An intrinsically disordered region mediates RNA-binding selectivity and cellular activities of LARP6”.
